This assay concerns the target biotinylated DNP-Ab (anti-DNP antibody modified with biotinamidocaproate N-hydroxysuccinimide ester). Nature of the assay: quartz crystal microbalance; avidin injected onto biotinylated DNP-Ab held on the dinitrosalicylic acid antigen monolayer.

avidin (from UniProt P02701 25-152) returned a crystal frequency change Δf of -120 Hz.
